The values that follow are results of earlier work, collected in paper PMC4438997.

For this series, the target named is Ezrin FERM (Homo sapiens) (UniProt P15311).
Chain of UniProt P15311 (P15311 1-299): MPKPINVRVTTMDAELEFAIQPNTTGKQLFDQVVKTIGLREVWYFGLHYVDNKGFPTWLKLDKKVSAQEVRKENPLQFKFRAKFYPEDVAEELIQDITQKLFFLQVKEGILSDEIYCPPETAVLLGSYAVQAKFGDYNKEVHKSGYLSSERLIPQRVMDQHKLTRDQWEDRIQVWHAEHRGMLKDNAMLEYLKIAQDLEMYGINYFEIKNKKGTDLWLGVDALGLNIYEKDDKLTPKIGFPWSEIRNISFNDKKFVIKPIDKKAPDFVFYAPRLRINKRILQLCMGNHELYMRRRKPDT

“NHERF1 C-terminal domain (from UniProt O14745)”: the Kd (commonly the free concentration of one partner at which half of the binding sites on the other are occupied at equilibrium, for simple one-to-one binding) is 19 nM.
